Measured values published in patent US20260242735A1 (UNIVERSIT T BASEL, published 2026).
Blank lines part the entries; values can stand above or below the binder they belong to.

Key:
Assay in all cases: alanine scan, flow cytometry;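 also: HEK293-T cells transiently expressing single-residue alanine mutants of CD33 (alanine swapped to serine), antibody binding read by fluorescence in duplicate, background-subtracted, expressed relative to wild-type CD33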
human CD33 H206A = human CD33 H206A (human, UniProt P20138 18-364)
human CD33 G260A = human CD33 G260A (human, UniProt P20138 18-364)
human CD33 G247A = human CD33 G247A (human, UniProt P20138 18-364)
human CD33 D205A = human CD33 D205A (human, UniProt P20138 18-364)
human CD33 V257A = human CD33 V257A (human, UniProt P20138 18-364)
human CD33 F216A = human CD33 F216A (human, UniProt P20138 18-364)
human CD33 G245A = human CD33 G245A (human, UniProt P20138 18-364)
human CD33 I242A = human CD33 I242A (human, UniProt P20138 18-364)
human CD33 R225A = human CD33 R225A (human, UniProt P20138 18-364)
human CD33 Y233A = human CD33 Y233A (human, UniProt P20138 18-364)
human CD33 I262A = human CD33 I262A (human, UniProt P20138 18-364)
human CD33 F243A = human CD33 F243A (human, UniProt P20138 18-364)
human CD33 A265S = human CD33 A265S (human, UniProt P20138 18-364)
human CD33 T239A = human CD33 T239A (human, UniProt P20138 18-364)
human CD33 E224A = human CD33 E224A (human, UniProt P20138 18-364)
human CD33 E252A = human CD33 E252A (human, UniProt P20138 18-364)
human CD33 L210A = human CD33 L210A (human, UniProt P20138 18-364)
human CD33 V214A = human CD33 V214A (human, UniProt P20138 18-364)
human CD33 I198A = target: T1, human CD33 I198A (human, UniProt P20138 18-364)
T1 construct: the leading token is not explained

human CD33 G218A = human CD33 G218A (human, UniProt P20138 18-364)
human CD33 N209A = human CD33 N209A (human, UniProt P20138 18-364)
human CD33 P203A = human CD33 P203A (human, UniProt P20138 18-364)
human CD33 K250A = human CD33 K250A (human, UniProt P20138 18-364)
human CD33 G256A = human CD33 G256A (human, UniProt P20138 18-364)
human CD33 A255S = human CD33 A255S (human, UniProt P20138 18-364)
human CD33 A269S = human CD33 A269S (human, UniProt P20138 18-364)
human CD33 Q236A = human CD33 Q236A (human, UniProt P20138 18-364)
human CD33 T200A = human CD33 T200A (human, UniProt P20138 18-364)
human CD33 R254A = human CD33 R254A (human, UniProt P20138 18-364)
human CD33 T223A = human CD33 T223A (human, UniProt P20138 18-364)
human CD33 V258A = human CD33 V258A (human, UniProt P20138 18-364)
human CD33 T232A = human CD33 T232A (human, UniProt P20138 18-364)
human CD33 G241A = human CD33 G241A (human, UniProt P20138 18-364)
human CD33 P235A = human CD33 P235A (human, UniProt P20138 18-364)
human CD33 L197A = human CD33 L197A (human, UniProt P20138 18-364)
human CD33 V231A = human CD33 V231A (human, UniProt P20138 18-364)
human CD33 L229A = human CD33 L229A (human, UniProt P20138 18-364)
human CD33 T253A = human CD33 T253A (human, UniProt P20138 18-364)
human CD33 P244A = human CD33 P244A (human, UniProt P20138 18-364)
human CD33 T226A = human CD33 T226A (human, UniProt P20138 18-364)
human CD33 P201A = human CD33 P201A (human, UniProt P20138 18-364)
Sequence of human CD33 P201A (P20138 18-364 P201A limits assumed): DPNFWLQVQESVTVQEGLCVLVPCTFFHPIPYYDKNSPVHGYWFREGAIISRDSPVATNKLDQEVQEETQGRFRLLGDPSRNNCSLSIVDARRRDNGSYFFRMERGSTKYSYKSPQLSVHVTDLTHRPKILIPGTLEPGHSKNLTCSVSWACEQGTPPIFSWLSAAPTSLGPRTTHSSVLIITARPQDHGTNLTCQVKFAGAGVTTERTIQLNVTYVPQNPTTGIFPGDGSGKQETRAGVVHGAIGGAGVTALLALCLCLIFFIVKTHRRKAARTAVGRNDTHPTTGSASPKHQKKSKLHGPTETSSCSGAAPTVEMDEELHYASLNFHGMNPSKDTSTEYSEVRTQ

Sequence of human CD33 T239A (P20138 18-364 T239A limits assumed): as the sequence (P20138 18-364 P201A limits assumed) above, with A184P, T222A counted along it
Sequence of human CD33 G241A (P20138 18-364 G241A limits assumed): as the sequence (P20138 18-364 P201A limits assumed) above, with A184P, G224A counted along it
Sequence of human CD33 T223A (P20138 18-364 T223A limits assumed): as the sequence (P20138 18-364 P201A limits assumed) above, with A184P, T206A counted along it
Sequence of human CD33 R225A (P20138 18-364 R225A limits assumed): as the sequence (P20138 18-364 P201A limits assumed) above, with A184P, R208A counted along it
Sequence of human CD33 K250A (P20138 18-364 K250A limits assumed): as the sequence (P20138 18-364 P201A limits assumed) above, with A184P, K233A counted along it
Sequence of human CD33 G260A (P20138 18-364 G260A limits assumed): as the sequence (P20138 18-364 P201A limits assumed) above, with A184P, G243A counted along it
Sequence of human CD33 Y233A (P20138 18-364 Y233A limits assumed): as the sequence (P20138 18-364 P201A limits assumed) above, with A184P, Y216A counted along it
Sequence of human CD33 T200A (P20138 18-364 T200A limits assumed): as the sequence (P20138 18-364 P201A limits assumed) above, with T183A, A184P counted along it
Sequence of human CD33 G247A (P20138 18-364 G247A limits assumed): as the sequence (P20138 18-364 P201A limits assumed) above, with A184P, G230A counted along it
Sequence of human CD33 V214A (P20138 18-364 V214A limits assumed): as the sequence (P20138 18-364 P201A limits assumed) above, with A184P, V197A counted along it
Sequence of human CD33 I242A (P20138 18-364 I242A limits assumed): as the sequence (P20138 18-364 P201A limits assumed) above, with A184P, I225A counted along it
Sequence of human CD33 N209A (P20138 18-364 N209A limits assumed): as the sequence (P20138 18-364 P201A limits assumed) above, with A184P, N192A counted along it
Sequence of human CD33 T226A (P20138 18-364 T226A limits assumed): as the sequence (P20138 18-364 P201A limits assumed) above, with A184P, T209A counted along it

- Mean % WT Binding (human CD33 H206A): 98.3 % WT binding
- Mean % WT Binding (human CD33 G260A): 97.2 % WT binding
- Mean % WT Binding (human CD33 G247A): 105 % WT binding
- Mean % WT Binding (human CD33 D205A): 3.1 % WT binding
- Mean % WT Binding (human CD33 V257A): 98.1 % WT binding
- Mean % WT Binding (human CD33 F216A): 82.5 % WT binding
- Mean % WT Binding (human CD33 G245A): 91.8 % WT binding
- Mean % WT Binding (human CD33 I242A): 99 % WT binding
- Mean % WT Binding (human CD33 R225A): 104 % WT binding
- Mean % WT Binding (human CD33 Y233A): 103 % WT binding
- Mean % WT Binding (human CD33 I262A): 99.4 % WT binding
- Mean % WT Binding (human CD33 F243A): 98.2 % WT binding
- Mean % WT Binding (human CD33 A265S): 107 % WT binding
- Mean % WT Binding (human CD33 T239A): 87.3 % WT binding
- Mean % WT Binding (human CD33 E224A): 106 % WT binding
- Mean % WT Binding (human CD33 E252A): 108 % WT binding
- Mean % WT Binding (human CD33 L210A): 96.9 % WT binding
- Mean % WT Binding (human CD33 V214A): 94.4 % WT binding
- Mean % WT Binding (human CD33 I198A): 89.3 % WT binding
- Mean % WT Binding (human CD33 G218A): 98 % WT binding
- Mean % WT Binding (human CD33 N209A): 101 % WT binding
- Mean % WT Binding (human CD33 P203A): 103 % WT binding
- Mean % WT Binding (human CD33 K250A): 98 % WT binding
- Mean % WT Binding (human CD33 G256A): 108 % WT binding
- Mean % WT Binding (human CD33 A255S): 96.8 % WT binding
- Mean % WT Binding (human CD33 A269S): 93.9 % WT binding
- Mean % WT Binding (human CD33 Q236A): 103 % WT binding
- Mean % WT Binding (human CD33 T200A): 110 % WT binding
- Mean % WT Binding (human CD33 R254A): 95.7 % WT binding
- Mean % WT Binding (human CD33 T223A): 110 % WT binding
- Mean % WT Binding (human CD33 V258A): 95.9 % WT binding
- Mean % WT Binding (human CD33 T232A): 79.6 % WT binding
- Mean % WT Binding (human CD33 G241A): 101 % WT binding
- Mean % WT Binding (human CD33 P235A): 84.3 % WT binding
- Mean % WT Binding (human CD33 L197A): 103 % WT binding
- Mean % WT Binding (human CD33 V231A): 92.8 % WT binding
- Mean % WT Binding (human CD33 L229A): 97.1 % WT binding
- Mean % WT Binding (human CD33 T253A): 96.8 % WT binding
- Mean % WT Binding (human CD33 P244A): 101 % WT binding
- Mean % WT Binding (human CD33 T226A): 96.5 % WT binding
- Mean % WT Binding (human CD33 P201A): 115 % WT binding
B1: Refmab #6 (antibody, V domains shown)
VH: QVQLQQPGAEVVKPGASVKMSCKASGYTFTSYYIHWIKQTPGQGLEWVGVIYPGNDDISYNQKFQGKATLTADKSSTTAYMQLSSLTSEDSAVYYCAREVRLRYFDVWGQGTTVTVSS
VL: EIVLTQSPGSLAVSPGERVTMSCKSSQSVFFSSSQKNYLAWYQQIPGQSPRLLIYWASTRESGVPDRFTGSGSGTDFTLTISSVQPEDLAIYYCHQYLSSRTFGQGTKLEIK
notes: Full-length format is human IgG1 Fc silent (PG-LALA); also made as Fab; The alanine scan used IgG or Fab

- Mean % WT Binding (human CD33 H206A): 108 % WT binding
- Mean % WT Binding (human CD33 G260A): 102 % WT binding
- Mean % WT Binding (human CD33 G247A): 85.6 % WT binding
- Mean % WT Binding (human CD33 D205A): 12.3 % WT binding
- Mean % WT Binding (human CD33 V257A): 134 % WT binding
- Mean % WT Binding (human CD33 F216A): 104 % WT binding
- Mean % WT Binding (human CD33 G245A): 110 % WT binding
- Mean % WT Binding (human CD33 I242A): 81.8 % WT binding
- Mean % WT Binding (human CD33 R225A): 124 % WT binding
- Mean % WT Binding (human CD33 Y233A): 89.5 % WT binding
- Mean % WT Binding (human CD33 I262A): 97.5 % WT binding
- Mean % WT Binding (human CD33 F243A): 103 % WT binding
- Mean % WT Binding (human CD33 A265S): 99.7 % WT binding
- Mean % WT Binding (human CD33 T239A): 107 % WT binding
- Mean % WT Binding (human CD33 E224A): 97.1 % WT binding
- Mean % WT Binding (human CD33 E252A): 114 % WT binding
- Mean % WT Binding (human CD33 L210A): 78.2 % WT binding
- Mean % WT Binding (human CD33 V214A): 127 % WT binding
- Mean % WT Binding (human CD33 I198A): 84.7 % WT binding
- Mean % WT Binding (human CD33 G218A): 102 % WT binding
- Mean % WT Binding (human CD33 N209A): 88.1 % WT binding
- Mean % WT Binding (human CD33 P203A): 105 % WT binding
- Mean % WT Binding (human CD33 K250A): 85.7 % WT binding
- Mean % WT Binding (human CD33 G256A): 87.6 % WT binding
- Mean % WT Binding (human CD33 A255S): 88.3 % WT binding
- Mean % WT Binding (human CD33 A269S): 124 % WT binding
- Mean % WT Binding (human CD33 Q236A): 100 % WT binding
- Mean % WT Binding (human CD33 T200A): 98.3 % WT binding
- Mean % WT Binding (human CD33 R254A): 94.7 % WT binding
- Mean % WT Binding (human CD33 T223A): 115 % WT binding
- Mean % WT Binding (human CD33 V258A): 95.9 % WT binding
- Mean % WT Binding (human CD33 T232A): 81.5 % WT binding
- Mean % WT Binding (human CD33 G241A): 109 % WT binding
- Mean % WT Binding (human CD33 P235A): 102 % WT binding
- Mean % WT Binding (human CD33 L197A): 102 % WT binding
- Mean % WT Binding (human CD33 V231A): 88.2 % WT binding
- Mean % WT Binding (human CD33 L229A): 106 % WT binding
- Mean % WT Binding (human CD33 T253A): 94.6 % WT binding
- Mean % WT Binding (human CD33 P244A): 107 % WT binding
- Mean % WT Binding (human CD33 T226A): 97.9 % WT binding
- Mean % WT Binding (human CD33 P201A): 111 % WT binding
B2: Refmab #5 (antibody, V domains shown)
VH: QVQLVQSGAEVKKPGASVKVSCKASGYTFTNYDINWVRQAPGQGLEWIGWIYPGDGSTKYNEKFKAKATLTADTSTSTAYMELRSLRSDDTAVYYCASGYEDAMDYWGQGTTVTVSS
VL: DIQMTQSPSSLSASVGDRVTINCKASQDINSYLSWFQQKPGKAPKTLIYRANRLVDGVPSRFSGSGSGQDYTLTISSLQPEDFATYYCLQYDEFPLTFGGGTKVEIK
notes: as for B1
